In assay [1] the target is T1, cynomolgus monkey OX40, cell surface-expressed (cynomolgus monkey, UniProt P43489 29-277 (human entry)).
T1 construct: full-length, on transfected HEK293F cells
T1 chain: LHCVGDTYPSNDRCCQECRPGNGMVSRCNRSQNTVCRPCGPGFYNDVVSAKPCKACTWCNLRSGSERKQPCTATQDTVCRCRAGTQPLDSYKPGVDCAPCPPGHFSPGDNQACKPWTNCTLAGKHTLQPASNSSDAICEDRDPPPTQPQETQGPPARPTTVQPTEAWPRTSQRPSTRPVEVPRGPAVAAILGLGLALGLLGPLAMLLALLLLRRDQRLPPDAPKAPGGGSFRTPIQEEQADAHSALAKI
Nature of the assay: flow cytometry, HEK293F cells with cynomolgus monkey OX40. How it is done:
Transfected cells were seeded in 96-well plates (30,000 cells/well; ThermoFisher, cat. no. 163320) for sequential incubations, with washing steps in between using fluorescence-activated cell sorting (FACS) buffer 1 (phosphate buffered saline [PBS; Lonza, cat. no. BE17-517Q] supplemented with 0.1% bovine serum albumin [BSA; Roche, cat. no. 10735086001] and 0.02% sodium azide [NaN₃; Bio-World, cat. no. 41920044-3]) supplemented with 2 mM ethylenediaminetetraacetic acid (EDTA; Sigma-Aldrich, cat. no. 03690). […] Cells were then washed using EDTA-supplemented FACS buffer 1, resuspended in a 30 μL solution of viability marker ToPro-3 (Invitrogen, cat. no. T3605, diluted 1:10,000) in EDTA-supplemented FACS buffer 1, and subsequently analyzed on an iQue® 3 flow cytometer (Satorius). Data were analyzed using FlowJo software and were visualized using GraphPad Prism.

Assay [2] addresses T2, human OX40, cell surface-expressed (human, UniProt P43489 29-277).
T2 construct: also called CD134; TNFRSF4
T2 sequence: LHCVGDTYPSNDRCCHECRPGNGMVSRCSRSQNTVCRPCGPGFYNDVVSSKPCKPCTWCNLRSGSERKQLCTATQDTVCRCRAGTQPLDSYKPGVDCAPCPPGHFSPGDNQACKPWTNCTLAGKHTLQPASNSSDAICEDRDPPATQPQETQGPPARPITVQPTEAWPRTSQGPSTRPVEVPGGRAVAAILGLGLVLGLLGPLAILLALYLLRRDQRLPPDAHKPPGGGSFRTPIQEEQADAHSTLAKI
Nature of the assay: flow cytometry, ExpiCHO-S cells with human OX40. The method, then: (§1) The four shuffle constructs, as well as wild-type human and mouse OX40 were transiently expressed on ExpiCHO-S cells using the ExpiFectamine™ CHO Transfection Kit (ThermoFisher, cat. no. A29131), according to the manufacturer's protocol. […] Next, cells were washed twice in FACS buffer 1, were resuspended in a 30 μL solution of viability marker ToPro-3 (Invitrogen, cat. no. T3605, diluted 1:10,000) in FACS buffer 1 supplemented with 2 mM EDTA, and were analyzed on an iQue Screener Plus (Intellicyt Corporation, USA). Data were analyzed using FlowJo software and visualized using GraphPad Prism.

In assay [3] the target is T3, human OX40 with mouse CRD2 (human with mouse CRD2, UniProt P43489 29-277).
T3 construct: on transfected ExpiCHO-S cells; also called Shuffle 2; OX40-CRD2mm
T3 chain: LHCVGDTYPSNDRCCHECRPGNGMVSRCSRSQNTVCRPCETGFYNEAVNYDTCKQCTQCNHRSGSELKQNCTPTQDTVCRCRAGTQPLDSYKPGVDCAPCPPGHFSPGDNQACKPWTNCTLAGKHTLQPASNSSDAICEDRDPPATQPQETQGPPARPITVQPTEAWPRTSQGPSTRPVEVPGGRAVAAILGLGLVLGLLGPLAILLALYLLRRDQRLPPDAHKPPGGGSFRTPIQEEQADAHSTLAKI
Nature of the assay: flow cytometry, ExpiCHO-S cells with human OX40 carrying mouse CRD2. How it is done: as §1

Assay [4] addresses T4, human OX40 with mouse CRD3 (human with mouse CRD3, UniProt P43489 29-277).
T4 construct: on transfected ExpiCHO-S cells; also called Shuffle 3; OX40-CRD3mm
T4 chain: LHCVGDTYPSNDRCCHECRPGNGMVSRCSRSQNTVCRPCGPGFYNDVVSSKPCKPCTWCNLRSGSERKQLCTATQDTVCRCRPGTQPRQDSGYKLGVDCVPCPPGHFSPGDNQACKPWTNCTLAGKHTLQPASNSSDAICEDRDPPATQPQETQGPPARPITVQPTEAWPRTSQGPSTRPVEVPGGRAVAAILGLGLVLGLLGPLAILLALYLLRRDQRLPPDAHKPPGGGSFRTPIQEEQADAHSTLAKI
Nature of the assay: flow cytometry, ExpiCHO-S cells with human OX40 carrying mouse CRD3. How it is done: as §1

For assay [5], the target named is T5, human OX40 with mouse CRD4 (human with mouse CRD4, UniProt P43489 29-277).
T5 construct: on transfected ExpiCHO-S cells; also called Shuffle 4; OX40-CRD4mm
T5 chain: T2 sequence with D109N, A122S, H125Q, L127R, Q128H, N132D, S134L, I137V
Nature of the assay: flow cytometry, ExpiCHO-S cells with human OX40 carrying mouse CRD4. How it is done: (§2) Data shown are the geometric mean of the fluorescence intensity (gMFI) from one representative experiment out of two experiments performed.
as §1

In assay [6] the target is T6, human OX40 with mouse CRD1 (human with mouse CRD1, UniProt P43489 29-277).
T6 construct: on transfected ExpiCHO-S cells; also called Shuffle 1; OX40-CRD1mm
T6 chain: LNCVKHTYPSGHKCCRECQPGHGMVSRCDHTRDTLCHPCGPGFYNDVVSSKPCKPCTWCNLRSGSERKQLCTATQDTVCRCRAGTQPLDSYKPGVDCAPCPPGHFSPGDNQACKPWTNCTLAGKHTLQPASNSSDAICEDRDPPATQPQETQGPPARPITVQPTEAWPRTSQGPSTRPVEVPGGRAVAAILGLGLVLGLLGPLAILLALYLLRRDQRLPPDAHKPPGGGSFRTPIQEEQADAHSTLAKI
Description: flow cytometry, ExpiCHO-S cells with human OX40 carrying mouse CRD1. The method, then: as §2, §1

Changes are numbered by the printed parent chain. Names may count otherwise.

B1: IgG1-CD134-012-RR-K409R (antibody)
heavy: QSLEESGGRLVTPGTPLTLICTVSGIDLSSGAMGWVRQAPGKGLEYIGYIYTGSGTTSYASWVNGRFTISMTSTTVDLKITSPTTEDTATYFCARDAASSYWGHFTLWGQGTLVTVSSASTKGPSVFPLAPSSKSTSGGTAALGCLVKDYFPEPVTVSWNSGALTSGVHTFPAVLQSSGLYSLSSVVTVPSSSLGTQTYICNVNHKPSNTKVDKRVEPKSCDKTHTCPPCPAPELLGGPSVFLFPPKPKDTLMISRTPEVTCVVVDVSHEDPEVKFNWYVDGVEVHNAKTKPREEQYNSTYRVVSVLTVLHQDWLNGKEYKCKVSNKALRAPIEKTISKAKGQPRRPQVYTLPPSREEMTKNQVSLTCLVKGFYPSDIAVEWESNGQPENNYKTTPPVLDSDGSFFLYSRLTVDKSRWQQGNVFSCSVMHEALHNHYTQKSLSLSPG
light: DIVMTQTPASVEAAVGGTVTIKCQASENIYSSLAWYQQKPGQPPKLLIYRTSTLASGVPSRFKGSGSGTQFTLTISDLESDDAATYYCQSYYHNSGGGYDYGFGGGTEVVAKRTVAAPSVFIFPPSDEQLKSGTASVVCLLNNFYPREAKVQWKVDNALQSGNSQESVTEQDSKDSTYSLSSTLTLSKADYEKHKVYACEVTHQGLSSPVTKSFNRGEC
notes: chimeric 012; also called IgG1-CD134-012-P329R-E345R-K409R
As for B1, the “EC50 (read off the curve)” value in assay [1] is ~0.05 µg/mL; in assay [2], ~0.06 µg/mL; in assay [3], ~0.1 µg/mL; in assay [4], ~0.1 µg/mL; in assay [5], ~0.1 µg/mL.

B2: IgG1-CD134-007-RR (antibody)
heavy: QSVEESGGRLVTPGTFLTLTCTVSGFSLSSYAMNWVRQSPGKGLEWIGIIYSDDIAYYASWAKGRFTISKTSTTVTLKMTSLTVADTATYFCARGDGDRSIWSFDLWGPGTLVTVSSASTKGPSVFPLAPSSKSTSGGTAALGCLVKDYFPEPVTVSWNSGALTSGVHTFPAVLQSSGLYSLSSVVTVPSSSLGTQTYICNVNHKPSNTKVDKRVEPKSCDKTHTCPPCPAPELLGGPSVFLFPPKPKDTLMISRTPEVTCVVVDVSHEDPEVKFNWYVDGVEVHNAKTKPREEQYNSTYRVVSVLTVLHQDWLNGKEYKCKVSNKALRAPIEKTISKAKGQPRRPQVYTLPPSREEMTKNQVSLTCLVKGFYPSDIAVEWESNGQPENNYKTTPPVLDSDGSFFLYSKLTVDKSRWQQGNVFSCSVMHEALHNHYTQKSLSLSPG
light: AQVLTQTPSPVSAAVGGTVTISCQSSESVWNNNWLAWYQQKPGQPPNLLIYEASTLASGVSSRFKGSGSGTQFTLTVSEVQSDDAATYYCQGGYYDSSPIWTFGGGTEVVVKRTVAAPSVFIFPPSDEQLKSGTASVVCLLNNFYPREAKVQWKVDNALQSGNSQESVTEQDSKDSTYSLSSTLTLSKADYEKHKVYACEVTHQGLSSPVTKSFNRGEC
notes: chimeric 007 with RR constant region; also called IgG1-CD134-007-P329R-E345R
As to B2, the “EC50 (read off the curve)” value in assay [2] was ~0.005 µg/mL; in assay [6] it was ~5 ng/mL; in assay [4] it was ~0.02 µg/mL; in assay [5], ~0.009 µg/mL.

These data come from patent US20240376221A1 (Genmab, published 2024).
